According to US20140087995A1 (published 2014):
Numbered stars: 1 amine (or outer) side, 2 acyl side, 3 side chain; on linkers, the order of the positions; unused ones are H or OH. Bridge positions count the residues as written; N and C are the ends. Side chains are listed from the residue outwards. Ends that are not written are not given here. * marks the point of attachment. C20 diacid = O=C(O)CCCCCCCCCCCCCCCCCCC(=O)*; γGlu = O=C(O)[C@H](CCC(=O)[*:2])N[*:1]; AEEA = NCCOCCOCC(=O)O

T1: human calcitonin receptor (human, UniProt P30988 25-474)
T1 construct: whole, on cells; Assay used cell membranes, not intact cells; also called hCTR; hCT
T1 sequence (looked up): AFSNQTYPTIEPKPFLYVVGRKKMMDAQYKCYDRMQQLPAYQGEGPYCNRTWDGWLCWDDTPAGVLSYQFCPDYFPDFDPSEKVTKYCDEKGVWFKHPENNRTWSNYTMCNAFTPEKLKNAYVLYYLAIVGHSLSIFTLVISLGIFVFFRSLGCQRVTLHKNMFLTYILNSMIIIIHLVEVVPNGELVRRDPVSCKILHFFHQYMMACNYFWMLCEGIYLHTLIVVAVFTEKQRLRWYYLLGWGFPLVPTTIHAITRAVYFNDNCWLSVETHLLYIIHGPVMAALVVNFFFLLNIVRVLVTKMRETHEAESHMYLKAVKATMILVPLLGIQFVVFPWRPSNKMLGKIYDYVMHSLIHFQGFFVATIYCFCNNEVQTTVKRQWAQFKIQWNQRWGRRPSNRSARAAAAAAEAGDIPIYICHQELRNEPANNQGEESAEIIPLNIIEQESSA

T2: human amylin receptor (amylin 3(a) receptor: human calcitonin receptor with RAMP-3) (human, UniProt P30988 25-474; O60896 24-148)
T2 construct: whole, on cells; Assay used cell membranes of the Amylin 3(a)/CRE-luc BHK cells, not intact cells; also called hAmylin-R; hAmylinR
T2 sequence (looked up) 1: T1 sequence (looked up)
T2 sequence (looked up) 2: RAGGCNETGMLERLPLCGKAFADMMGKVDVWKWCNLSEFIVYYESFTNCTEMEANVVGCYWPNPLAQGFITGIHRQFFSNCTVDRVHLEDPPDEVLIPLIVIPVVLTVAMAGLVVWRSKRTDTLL

B1: N^ε1-[2-[2-[2-[[(4S)-4-carboxy-4-(19-carboxynonadecanoylamino)butanoyl]amino]ethoxy]ethoxy]acetyl]-[Arg14,Arg17,Pro21,Pro27]-h-amylin (peptide)
peptide: K([AEEA-γGlu-C20 diacid])CNTATCATQRLARFLRHSSPNFGAIPSSTNVGSNTY-NH2
modifications: disulfide 2-7; N-terminus assumed
SMILES: CC[C@H](C)[C@H](NC(=O)[C@H](C)NC(=O)CNC(=O)[C@H](Cc1ccccc1)NC(=O)[C@H](CC(N)=O)NC(=O)[C@@H]1CCCN1C(=O)[C@H](CO)NC(=O)[C@H](CO)NC(=O)[C@H](Cc1c[nH]cn1)NC(=O)[C@H](CCCNC(=N)N)NC(=O)[C@H](CC(C)C)NC(=O)[C@H](Cc1ccccc1)NC(=O)[C@H](CCCNC(=N)N)NC(=O)[C@H](C)NC(=O)[C@H](CC(C)C)NC(=O)[C@H](CCCNC(=N)N)NC(=O)[C@H](CCC(N)=O)NC(=O)[C@@H](NC(=O)[C@H](C)NC(=O)[C@@H]1CSSC[C@H](NC(=O)[C@@H](N)CCCCNC(=O)COCCOCCNC(=O)CC[C@H](NC(=O)CCCCCCCCCCCCCCCCCCC(=O)O)C(=O)O)C(=O)N[C@@H](CC(N)=O)C(=O)N[C@@H]([C@@H](C)O)C(=O)N[C@@H](C)C(=O)N[C@@H]([C@@H](C)O)C(=O)N1)[C@@H](C)O)C(=O)N1CCC[C@H]1C(=O)N[C@@H](CO)C(=O)N[C@@H](CO)C(=O)N[C@H](C(=O)N[C@@H](CC(N)=O)C(=O)N[C@H](C(=O)NCC(=O)N[C@@H](CO)C(=O)N[C@@H](CC(N)=O)C(=O)N[C@H](C(=O)N[C@@H](Cc1ccc(O)cc1)C(N)=O)[C@@H](C)O)C(C)C)[C@@H](C)O
notes: also called compound 82
B2: N^ε1-[2-[2-[2-[[(4S)-4-carboxy-4-(19-carboxynonadecanoylamino)butanoyl]amino]ethoxy]ethoxy]acetyl]-[His14,Arg17,Pro21,Pro27,Arg34]-h-amylin (peptide)
peptide: K([AEEA-γGlu-C20 diacid])CNTATCATQRLAHFLRHSSPNFGAIPSSTNVGRNTY-NH2
modifications: disulfide 2-7; N-terminus assumed
SMILES: CC[C@H](C)[C@H](NC(=O)[C@H](C)NC(=O)CNC(=O)[C@H](Cc1ccccc1)NC(=O)[C@H](CC(N)=O)NC(=O)[C@@H]1CCCN1C(=O)[C@H](CO)NC(=O)[C@H](CO)NC(=O)[C@H](Cc1c[nH]cn1)NC(=O)[C@H](CCCNC(=N)N)NC(=O)[C@H](CC(C)C)NC(=O)[C@H](Cc1ccccc1)NC(=O)[C@H](Cc1c[nH]cn1)NC(=O)[C@H](C)NC(=O)[C@H](CC(C)C)NC(=O)[C@H](CCCNC(=N)N)NC(=O)[C@H](CCC(N)=O)NC(=O)[C@@H](NC(=O)[C@H](C)NC(=O)[C@@H]1CSSC[C@H](NC(=O)[C@@H](N)CCCCNC(=O)COCCOCCNC(=O)CC[C@H](NC(=O)CCCCCCCCCCCCCCCCCCC(=O)O)C(=O)O)C(=O)N[C@@H](CC(N)=O)C(=O)N[C@@H]([C@@H](C)O)C(=O)N[C@@H](C)C(=O)N[C@@H]([C@@H](C)O)C(=O)N1)[C@@H](C)O)C(=O)N1CCC[C@H]1C(=O)N[C@@H](CO)C(=O)N[C@@H](CO)C(=O)N[C@H](C(=O)N[C@@H](CC(N)=O)C(=O)N[C@H](C(=O)NCC(=O)N[C@@H](CCCNC(=N)N)C(=O)N[C@@H](CC(N)=O)C(=O)N[C@H](C(=O)N[C@@H](Cc1ccc(O)cc1)C(N)=O)[C@@H](C)O)C(C)C)[C@@H](C)O
notes: also called compound 84
B3: N^ε1-[2-[2-[2-[[(4S)-4-carboxy-4-(19-carboxynonadecanoylamino)butanoyl]amino]ethoxy]ethoxy]acetyl]-[Arg17,Pro21,Pro27,His34]-h-amylin (peptide)
peptide: K([AEEA-γGlu-C20 diacid])CNTATCATQRLANFLRHSSPNFGAIPSSTNVGHNTY-NH2
modifications: disulfide 2-7; N-terminus assumed
SMILES: CC[C@H](C)[C@H](NC(=O)[C@H](C)NC(=O)CNC(=O)[C@H](Cc1ccccc1)NC(=O)[C@H](CC(N)=O)NC(=O)[C@@H]1CCCN1C(=O)[C@H](CO)NC(=O)[C@H](CO)NC(=O)[C@H](Cc1c[nH]cn1)NC(=O)[C@H](CCCNC(=N)N)NC(=O)[C@H](CC(C)C)NC(=O)[C@H](Cc1ccccc1)NC(=O)[C@H](CC(N)=O)NC(=O)[C@H](C)NC(=O)[C@H](CC(C)C)NC(=O)[C@H](CCCNC(=N)N)NC(=O)[C@H](CCC(N)=O)NC(=O)[C@@H](NC(=O)[C@H](C)NC(=O)[C@@H]1CSSC[C@H](NC(=O)[C@@H](N)CCCCNC(=O)COCCOCCNC(=O)CC[C@H](NC(=O)CCCCCCCCCCCCCCCCCCC(=O)O)C(=O)O)C(=O)N[C@@H](CC(N)=O)C(=O)N[C@@H]([C@@H](C)O)C(=O)N[C@@H](C)C(=O)N[C@@H]([C@@H](C)O)C(=O)N1)[C@@H](C)O)C(=O)N1CCC[C@H]1C(=O)N[C@@H](CO)C(=O)N[C@@H](CO)C(=O)N[C@H](C(=O)N[C@@H](CC(N)=O)C(=O)N[C@H](C(=O)NCC(=O)N[C@@H](Cc1c[nH]cn1)C(=O)N[C@@H](CC(N)=O)C(=O)N[C@H](C(=O)N[C@@H](Cc1ccc(O)cc1)C(N)=O)[C@@H](C)O)C(C)C)[C@@H](C)O
notes: also called compound 76
B4: N^ε1-[2-[2-[2-[[(4S)-4-carboxy-4-(19-carboxynonadecanoylamino)butanoyl]amino]ethoxy]ethoxy]acetyl]-[Arg17,Pro21,Pro27,Arg34]-h-amylin (peptide)
peptide: K([AEEA-γGlu-C20 diacid])CNTATCATQRLANFLRHSSPNFGAIPSSTNVGRNTY-NH2
modifications: disulfide 2-7; N-terminus assumed
SMILES: CC[C@H](C)[C@H](NC(=O)[C@H](C)NC(=O)CNC(=O)[C@H](Cc1ccccc1)NC(=O)[C@H](CC(N)=O)NC(=O)[C@@H]1CCCN1C(=O)[C@H](CO)NC(=O)[C@H](CO)NC(=O)[C@H](Cc1c[nH]cn1)NC(=O)[C@H](CCCNC(=N)N)NC(=O)[C@H](CC(C)C)NC(=O)[C@H](Cc1ccccc1)NC(=O)[C@H](CC(N)=O)NC(=O)[C@H](C)NC(=O)[C@H](CC(C)C)NC(=O)[C@H](CCCNC(=N)N)NC(=O)[C@H](CCC(N)=O)NC(=O)[C@@H](NC(=O)[C@H](C)NC(=O)[C@@H]1CSSC[C@H](NC(=O)[C@@H](N)CCCCNC(=O)COCCOCCNC(=O)CC[C@H](NC(=O)CCCCCCCCCCCCCCCCCCC(=O)O)C(=O)O)C(=O)N[C@@H](CC(N)=O)C(=O)N[C@@H]([C@@H](C)O)C(=O)N[C@@H](C)C(=O)N[C@@H]([C@@H](C)O)C(=O)N1)[C@@H](C)O)C(=O)N1CCC[C@H]1C(=O)N[C@@H](CO)C(=O)N[C@@H](CO)C(=O)N[C@H](C(=O)N[C@@H](CC(N)=O)C(=O)N[C@H](C(=O)NCC(=O)N[C@@H](CCCNC(=N)N)C(=O)N[C@@H](CC(N)=O)C(=O)N[C@H](C(=O)N[C@@H](Cc1ccc(O)cc1)C(N)=O)[C@@H](C)O)C(C)C)[C@@H](C)O
notes: also called compound 78

These binders were tested against T1, human calcitonin receptor (assay: ratio IC50 hCTR / IC50 hAmylin-R (reference: human amylin receptor), SPA competition assays).
Description: The resulting pellet was resuspended, homogenized and centrifuged (20.000 rpm, 15 min) in a buffer containing 20 mM Na-HEPES and 0.1 mM EDTA (pH 7.4, buffer 2). The resulting pellet was resuspended in buffer 2 and protein concentration was measured (BCA protein Assay, Pierce). The homogenate was kept cold during the whole procedure. The membranes were kept at −80° C. until use. The assay was performed in a 384 well Optiplate (PerkinElmer) in a total volume of 40 ul. Membranes were mixed with SPA beads. Final concentration of membranes 35 ng/μL final and SPA beads was 0.05 mg/well. Test-compounds were dissolved in DMSO and further diluted in assay buffer (50 mM Hepes, pH 7.4, 1 mM CaCl2, 5 mM MgCl₂, 0.1% OA and 0.02% Tween20). […] The final mixture was incubated with shaking at 400 rpm for 120 min at 25° C. prior to centrifugation (1500 rpm, 10 min). Samples were analyzed on TopCounter™ (Packard). The IC₅₀ was calculated using (one site binding competition analysis) GraphPad Prism5 as a measure of receptor affinity.
Membranes were prepared in the following way; the cells were rinsed with PBS and incubated with Versene for approximately 5 min before harvesting. The cells were flushed with PBS and the cell-suspension was centrifuged for 5 min at 1000 rpm. Cells were homogenized (Ultrathurrax) in a buffer containing 20 mM Na-HEPES and 10 mM EDTA (pH 7.4) and centrifuged at 20.000 rpm for 15 min. The resulting pellet was resuspended, homogenized and centrifuged (20.000 rpm, 15 min) in a buffer containing 20 mM Na-HEPES and 0.1 mM EDTA (pH 7.4, buffer 2). The resulting pellet was resuspended in buffer 2 and protein concentration was measured (BCA protein Assay, Pierce). The homogenate was kept cold during the whole procedure. The membranes were kept at −80° C. until use. Assay was performed in a 384 well Optiplate (PerkinElmer) in a total volume of 40 ul. Membranes were mixed with SPA beads.

**Q.** With B1 as the binder, how does the “Ratio hCT/hAmylin binding” value read?
**A.** The value was 140.

**Q.** With B2 as the binder, how does the “Ratio hCT/hAmylin binding” value read?
**A.** The value was 120.

**Q.** Which “Ratio hCT/hAmylin binding” value does the source give for B3 here?
**A.** Its value is 80.

**Q.** For B4, which “Ratio hCT/hAmylin binding” value is on record?
**A.** The value was 60.7.

What follows are binders tested against T1, human calcitonin receptor (assay: SPA competition with 125I-calcitonin on membranes of BHK cells with human calcitonin receptor (Assay VII)).
Procedure, shortened: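 BHK hCTR membranes 35 ng/μL + SPA beads 0.05 mg/well; buffer 50 mM Hepes pH 7.4, 1 mM CaCl2, 5 mM MgCl₂, 0.1% OA, 0.02% Tween20. 120 min, 25° C., shaking. Scintillation count; IC50 by one-site binding competition.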

**Q.** For B1, which IC50 is on record?
**A.** The IC50 was 88.8 nM.

**Q.** Which IC50 does the source give for B2 here?
**A.** Its IC50 is 88.9 nM.

**Q.** Which IC50 does the source give for B3 here?
**A.** Its IC50 is 17.2 nM.

**Q.** With B4 as the binder, how does the IC50 read?
**A.** The IC50 was 36.5 nM.

The binders below were run against T2, human amylin receptor (amylin 3(a) …) (assay: SPA competition with 125I-rat amylin on membranes of BHK cells with human calcitonin receptor and RAMP-3 (Assay V)).
Procedure, shortened: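 Cell membranes were prepared by homogenisation in Na-HEPES/EDTA buffer, pH 7.4, and stored at −80° C. They were then coupled to SPA beads at 35 ng/μL final and exposed to compounds in assay buffer containing CaCl2, MgCl₂, OA and Tween20. After 120 min at 25° C, plates were counted and IC₅₀ derived.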

**Q.** For B1, which IC50 is on record?
**A.** The IC50 was 0.636 nM.

**Q.** For B2, which IC50 is on record?
**A.** The IC50 was 0.743 nM.

**Q.** How did the IC50 turn out when B3 was run?
**A.** Its IC50 is 0.215 nM.

**Q.** How did the IC50 turn out when B4 was run?
**A.** Its IC50 is 0.602 nM.
